± gives the uncertainty stated by the source.

The nature of this series: amyloid nucleation score (Sup35N fusion, yeast selection) (log enrichment); library NNK2; higher = more nucleation; inactive = no reads after selection. In outline:
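After 24 hours of induction with 100 μM copper sulfate, psi-negative yeast expressing peptides of 20 random codons fused to Sup35N were grown for 7 days at 30°C on medium lacking adenine and uracil. Input and output plasmid inserts were sequenced with Illumina, and sequences with under 100 input reads were discarded. Scores for nucleation are the DiMSum log enrichment of output over input reads, centred on the mode score of non-aggregating sequences.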
Substance LKTQWQSPWVQMV displayed an amyloid nucleation score of -0.09 ± 0.48.
In the case of FSLYN it was -1.64 ± 0.75; in that of LSTLLFRIYGLPS, -2.12 ± 0.49.
SADDL gave an amyloid nucleation score of 0.972 ± 0.39.
In the case of YYDFVVNGGDGLSIEYNSRG it was 0.405 ± 0.74; in that of RSLLRFQ, 0.874 ± 0.14.
With NIKSYVGYRNHFRVSLV, the amyloid nucleation score result was “inactive”.
With CMKAYKIRLLVLEDINSSFS, the amyloid nucleation score is -1.85 ± 0.48.
The substance RLCTVRSP yielded an amyloid nucleation score of 1.55 ± 0.14.
For NYWRDGQNDLGWLSLANFFK the value was “inactive”.
In the case of LLASRWPRYLNSWRKSHVKV it was -0.133 ± 1; in that of SCYDVCPLCSHCRIGTKM, 1.92 ± 0.2.
In the case of VPLGECIPNFLSTYGGYVVS it was -0.287 ± 0.33; in that of YIKWQI, 2.94 ± 0.065; in that of YYTWCYKKVFGNHWRQDFD, -1.23 ± 0.64.
In turn, VVYSSRLRSDA yielded an amyloid nucleation score of 1.12 ± 0.4.
In the case of EVLRKQIVRTRAVQVHFCLT it was 1.15 ± 0.15; in that of VWYFIDFGPRKISVITWRYS, -0.642 ± 0.78.
In the case of SMRVVCYWVLRW it was 3.16 ± 0.075; in that of SYFMRDSTN, “inactive”; in that of NLYTYAVKAVSYSMTGVFIS, -0.114 ± 1.
For CRSCEIVLGFLLSCNMCVLS the value was 3.79 ± 0.06.
For the substance QLESKRWWDIGWCSYLAGGW, the amyloid nucleation score is 4.92 ± 0.068.
For VPSSEYFIVFVCRPLLIVSL the value was “inactive”.
For SLMFKRRK the value was 0.317 ± 0.28; for TRTQMW, 0.739 ± 0.43.
The substance HWLRSGWELNVRVLGPQATF yielded an amyloid nucleation score of 0.982 ± 0.34.
In the case of SYDVRVAKINSPLGG it was -0.397 ± 0.79; in that of MKPSSSLTYLE, -0.11 ± 0.5; in that of SPLHKKVYKRLRLTSDTRQI, -0.516 ± 0.55.
In the case of ALSYFTGCRF it was 0.766 ± 0.47; in that of PLVLSFFRAIYSYYCNWKTC, -0.649 ± 0.64.
In the case of CRRENRCNRWFQ it was -0.602 ± 0.61; in that of SFYVNMSSFFRSLEEV, “inactive”; in that of FCSGLYHVYAD, 2.28 ± 0.15.
With RWYYTRTF, the amyloid nucleation score was -0.504 ± 1.1.
For GLFWVCAGGGKVGEYRYSGV the value was 0.021 ± 0.39; for MCGFFVIIMRC, -0.652 ± 0.74.
In the case of RECFLNPWSVYVRFS, the amyloid nucleation score was -0.086 ± 0.44.
For TPSECRCWEEFHGWTHLLRL the value was 0.461 ± 0.48; for MGRDLLASDSTCVGRVQGKL, 0.965 ± 0.57.
The substance PYRPHYAAVLRLAR returned an amyloid nucleation score of 0.08 ± 0.33.
For GCHVRSFK the value was 0.158 ± 0.31; for MCCGCVNVFFMHARHVLGWS, 8.977 ± 0.038; for MFVYADFSHILEKRGHTGNR, 2.64 ± 0.15.
In the case of KHRRYFFCVGSIRWASVYKT it was “inactive”.
CYVLFIRSDYGTWSMVH yielded an amyloid nucleation score of 4.53 ± 0.051.
In the case of FTWLRPRGFS it was -0.676 ± 0.27.
For RVNSIAFI, the amyloid nucleation score was -0.701 ± 0.56.
HDVFVTYTTLLITARLMRRP had an amyloid nucleation score of 1.86 ± 0.27.
For WHFSLTMFRSERVNVLTASD the value was 1.04 ± 0.27.
For LDRGVVSLRLLFARAHNYSK the value was 2.88 ± 0.15; for VHRWSDTYTTTYM, -0.535 ± 0.33.
In the case of TVFSK it was -0.998 ± 0.76; in that of CNIAPASKFSIIMPRR, 3.74 ± 0.11; in that of TITHLSNACTYMVDIRSFTF, 5.38 ± 0.068.
In the case of VLILNQE, the amyloid nucleation score result is “inactive”.
As for SRLTS, the amyloid nucleation score came to 2.32 ± 0.066.
In the case of LWIGWSLKPKVDVRLCHWVK it was 0.173 ± 1.1; in that of EYSNFVTNEYEWIVGPTWSS, 6.317 ± 0.026.
On to NAERSESLYNYKMAGPYGEG, for which the amyloid nucleation score was -0.661 ± 1.1.
In the case of DRIGIRYWG it was 1.34 ± 0.14.
Substance GLERNRFGRQCLGWLLWNEA returned an amyloid nucleation score of 0.065 ± 1.1.
Turning to SYGHDWVGKGKVGGIRLM, the amyloid nucleation score is -0.904 ± 0.49.
In the case of PPRYARFKSDLHSLHAVFGN it was 5.57 ± 0.061; in that of VNQFNVIIKD, 3.33 ± 0.1.
In the case of QCWLGTGFLRVLACAVAFLY it was “inactive”; in that of FLPCL, -0.739 ± 1.
In the case of SSYKKYSVVN it was -1.59 ± 0.48; in that of CRINFTFDELVVVSQILTWL, 4.07 ± 0.058; in that of FSTRGSAMLRVAGLSGPRAS, 0.29 ± 0.43.
Consider FRLPNVLRDGSA, for which the amyloid nucleation score worked out at 1.41 ± 0.41.
In the case of NNRSGYEYVIEFRLTSAVHF it was 2.1 ± 0.13.
Substance SKSAPC had an amyloid nucleation score of 0.39 ± 0.29.
In the case of TVVFYNNIIFGFDFSSAKWL it was 6.21 ± 0.067; in that of IIINFRVAINDWGFLSVSID, 5.515 ± 0.027; in that of TYVHDPGFPLWLDMAKRFGL, 0.581 ± 0.5.
In the case of TPVYPRRSIVLICSISMLRK it was 4.12 ± 0.064.
For HVYIGVNLKRENKTHQTSSV the value was 4.77 ± 0.064.
WFCVRVA had an amyloid nucleation score of -0.13 ± 0.37.
For QYQKIIWISCSIPMQMTISA the value was -0.097 ± 1.1; for TDQDT, 0.516 ± 0.32; for YSCFEMSCVGLGDVMIFIVL, 8.119 ± 0.037.
For FSKIIHDSALVNISWMHDGS the value was 0.844 ± 0.56.
In the case of MRPMIFPCYAMSSVSMLTSR it was 0.72 ± 0.27; in that of TTNSFINLVYMNMHK, 6.63 ± 0.075; in that of IGVYSVWNFMMVRSADARFN, 3.4 ± 0.16.
Consider GTSHWWIGMRFSEADLLLDW, for which the amyloid nucleation score was 0.656 ± 0.41.
As for TFKMSGINPTD, the amyloid nucleation score was -1.19 ± 0.3.
For DRVSVVIAGDQKPEFRRGKR the value was -0.469 ± 0.45; for FMQGPFNYTRMLSL, -0.808 ± 1.1; for SICVRKYVKFWVWAMNTLFR, -0.174 ± 0.19.
For QLENMCFFSPLQTYMLDRNW the value was -1.47 ± 0.41.
On to RGLRDLMCLRPLRLASSQPP, for which the amyloid nucleation score result was “inactive”.
In the case of VLMDASTSVYTRSLMWKYMR it was -0.162 ± 0.76; in that of FRCIDFR, 0.674 ± 0.65; in that of HFNFCLWDNENYRNGMVWCR, 0.042 ± 0.5.
For FRIPRWFKTS the value was -0.284 ± 1.1.
For YEFCVAFFDRNNCNREP the value was -1.6 ± 0.75; for RELCVFASCAFVGLLVESWK, 6.16 ± 0.078; for ILGDRSRSS, 0.388 ± 0.62.
HGMYKTG came in with an amyloid nucleation score of 2.54 ± 0.11.
RMFVLLNRPNGLSCKGMFRG returned an amyloid nucleation score of 0.446 ± 0.64.
For SGVAPVIMYCAIVCGGLHM the value was 8.517 ± 0.067; for GGTIKALYNSSGTRRMSKLR, -0.224 ± 0.2; for KCYLVLRG, 3.08 ± 0.17.
The substance EKGNVGSQANTLVRCSGLTW displayed an amyloid nucleation score of 1.17 ± 0.21.
In the case of RRNMVSWVSDDEQFSDKPLA it was 0.121 ± 0.4.
For WYWHPCTIFL the value was 5.46 ± 0.038; for FNCEGLVNS, -1.25 ± 0.64; for VYMGEELVLVISVKDR, “inactive”.
For IYVVMFSKRLNSNFW the value was -1.62 ± 0.62.
LITRGCCL came in with an amyloid nucleation score of -0.33 ± 0.76.
For YAGWVGI the value was -0.387 ± 1.1; for YFKYNVYIT, 1.3 ± 0.23; for LFFTFSKKFAR, 3.48 ± 0.068.
For TLRSETMSDWYSRLHGFVFK the value was 0.988 ± 0.52; for KIKPLIIKNMCGNNTGPGIQ, “inactive”.
For SSGGIDQFGRESISHHWLC the value was -0.858 ± 0.76; for FCAYVAWLSSWNIQPAKGRG, 1.1 ± 0.35.
NMYLDVRRSDGICGHIY registered an amyloid nucleation score of -1.28 ± 1.
VLVKSLMRENVPCPPLGTLS displayed an amyloid nucleation score of 0.942 ± 0.36.
In the case of VHTARLTWDLGYSVRCYYWT it was 6.47 ± 0.074.
For ENCHFLGWANNGVLKCSFT the value was -0.153 ± 0.63; for DWTTAFSTF, -0.012 ± 0.41; for QNTMALKHNICPEHSSMWNS, 2.64 ± 0.066.
ECFTMSRK had an amyloid nucleation score of -1.28 ± 0.37.
In the case of HYLEGYRFDLEMIVCICQKG it was 5.369 ± 0.049; in that of CVIYVKVIIMPVSIVDVGSV, -0.351 ± 0.48; in that of VVQFSNGDLLILTGCPNTSK, 0.449 ± 0.8.
For SGPVERFLILLIRCMNRLYV the value was -1.19 ± 0.44.
In the case of IQPPQFFAFI it was “inactive”.
MLVVLWQSARRSVTIIKVRT gave an amyloid nucleation score of 0.546 ± 0.5.
In the case of YGMQLFC it was 3.95 ± 0.082; in that of GLGGTTFI, -1.04 ± 0.43; in that of QSWSRQSATGPWTLVCQRRP, 0.69 ± 0.51.
Consider YFGSCPREKLGILYKELLVL, for which the amyloid nucleation score was -0.563 ± 0.79.
For ETHVRMWAHFWQTTLRCHKS the value was 1.72 ± 0.16; for THNLAEGQGKDCVQSLDRMG, 0.22 ± 0.38; for SDIVNMGEVLVLGDSYWREG, -0.449 ± 0.63.
For AMVWGSIFSRKSQGLSHSSG the value was “inactive”; for RYTLRGSGEWLVHDTLGVTD, 0.267 ± 0.5.
